From patent US20120263722A1 (AbbVie / Abbott, published 2012) come the findings set out here.

The Kd is the equilibrium constant for the complex coming apart. As usually defined, the koff is the rate constant with which the complex falls apart. What is called kon is the second-order rate constant of association.

For assay [1], the target named is T1, EGFR on the cell surface (human, UniProt P00533 25-1210).
T1 construct: whole, on cells; also called epidermal growth factor receptor
In words: flow cytometry on cells carrying the target, antibody or DVD-Ig at 2 ug/mL.
Protocol: Binding of monoclonal antibodies to the surface of human tumor cell fines was assessed by flow cytometry. For example, stable cell lines overexpressing a cell-surface antigen of interest or human tumor cell lines were harvested from tissue culture flasks and resuspended in phosphate buffered saline (PBS) containing 5% fetal bovine serum (PBS/FBS). Prior to staining, human tumor cells were incubated on ice with (100 μl) human IgG at 5 μg/ml in PBS/FCS. 1-5×10⁵ cells were incubated with antibody or DVD-Ig (2 μg/mL) in PBS/FBS for 30-60 minutes on ice. […] After 30 minutes incubation on ice, cells were washed twice and resuspended in PBS/PBS. Fluorescence was measured using a Becton Dickinson FACSCalibur (Becton Dickinson, San Jose, Calif.).
The geometric mean is the n root of the multiplication product of n fluorescent signals (a1×a2×a3 . . . an). With log-transformed data the geometric mean is used to normalize the weighting of the data distribution.

In assay [2] the target is T2, Recombinant Human DLL4 (human, UniProt Q9NR61 27-524).
T2 construct: Bought reagent used in the Biacore analyses; also called Delta-like ligand 4
The experiment in a line: SPR (BIACORE), N-terminal variable domain to target antigen. A general note: Surface plasmon resonance follows binding to a sensor surface in real time, without labels.
Protocol: (§1) The BIACORE assay (Biacore, Inc, Piscataway, N.J.) determines the affinity of antibodies or DVD-Ig with kinetic measurements of on-rate and off-rate constants. Binding of antibodies or DVD-Ig to a target antigen (for example, a purified recombinant target antigen) was determined by surface plasmon resonance-based measurements with a Biacore® 1000 or 3000 instrument (Biacore® AB. Uppsala, Sweden) using running HBS-EP (10 mM HEPES [pH 7.4], 150 mM NaCl, 3 mM EDTA, and 0.005% surfactant P20) at 25° C. All chemicals were obtained from Biacore® AB (Uppsala, Sweden) or otherwise from a different source as described in the text.
(§2) For example, approximately 5000 RU of goat anti-mouse IgG, (Fcγ), fragment specific polyclonal antibody (Pierce Biotechnology Inc, Rockford, Ill.) diluted in 10 mM sodium acetate (pH 4.5) is directly immobilized across a CMS research grade biosensor chip using a standard amine coupling kit according to manufacturer's instructions and procedures at 25 μg/ml. Unreacted moieties on the biosensor surface are blocked with ethanolamine. Modified carboxymethyl dextran surface in flowcell 2 and 4 is used as a reaction surface. Unmodified carboxymethyl dextran without goat anti-mouse. IgG in flow cell 1 and 3 is used as the reference surface. For kinetic analysis, rate equations derived from the 1:1 Langmuir binding model are fitted simultaneously to association and dissociation phases of all eight injections (using global fit analysis) with the use of Biaevaluation 4.0.1 software. Purified antibodies or DVD-Ig are diluted in HEPES-buffered saline for capture across goat anti-mouse IgG specific reaction surfaces. Antibodies or DVD-Ig, to be captured as a ligand (25 μg/ml) are injected over reaction matrices at a flow rate of 5 μl/min. The association and dissociation rate constants, kₒₙ(M⁻¹s⁻¹) and koff (s⁻¹) are determined under a continuous flow rate of 25 μl/min. Rate constants are derived by making kinetic binding measurements at different antigen concentrations ranging from 10-200 nM. The equilibrium dissociation constant (M) of the reaction between antibodies or DVD-Igs and the target antigen is then calculated from the kinetic rate constants by the following formula: KD=koff/Kₒₙ. Binding is recorded as a function of time and kinetic rate constants are calculated.

The target in assay [3] is T3, ErbB3 (UniProt P21860 20-643, limits assumed).
T3 construct: also called v-erb-b2 avian erythroblastic leukemia viral oncogene homolog 3
The assay is described as above.
Protocol: as §1, §2

The target in assay [4] is T4, Recombinant Human VEGF 165 (human, UniProt P15692-4 27-191).
T4 construct: Bought reagent used in the Biacore analyses; also called vascular endothelial growth factor
The assay is described as above.
Protocol: as §1, §2

For assay [5], the target named is T5, Recombinant Human MSP R/RON (human, UniProt Q04912 25-571, limits assumed).
T5 construct: Bought reagent used in the Biacore analyses; also called macrophage stimulating protein receptor tyrosine kinase
Described as above.
Protocol: as §1, §2

The target of assay [6] is T6, Recombinant Human PIGF (human, UniProt P49763-2 21-149, limits assumed).
T6 construct: Bought reagent used in the Biacore analyses; also called PlGF; placental growth factor
T6 sequence (looked up): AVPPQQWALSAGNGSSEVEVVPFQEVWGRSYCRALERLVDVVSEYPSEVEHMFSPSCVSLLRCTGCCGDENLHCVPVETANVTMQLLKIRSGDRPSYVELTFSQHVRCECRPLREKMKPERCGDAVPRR
The description is as above.
Protocol: as §1, §2

Some results are limits rather than exact numbers.

T4 sequence (P15692 other isoform, or with tags, fused parts or gaps limits assumed): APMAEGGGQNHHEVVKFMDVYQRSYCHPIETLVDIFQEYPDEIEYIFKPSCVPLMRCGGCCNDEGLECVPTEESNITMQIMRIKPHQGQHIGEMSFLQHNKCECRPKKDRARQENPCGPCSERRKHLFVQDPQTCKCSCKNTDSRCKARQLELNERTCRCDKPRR
T2 sequence (Q9NR61 27-524 limits assumed): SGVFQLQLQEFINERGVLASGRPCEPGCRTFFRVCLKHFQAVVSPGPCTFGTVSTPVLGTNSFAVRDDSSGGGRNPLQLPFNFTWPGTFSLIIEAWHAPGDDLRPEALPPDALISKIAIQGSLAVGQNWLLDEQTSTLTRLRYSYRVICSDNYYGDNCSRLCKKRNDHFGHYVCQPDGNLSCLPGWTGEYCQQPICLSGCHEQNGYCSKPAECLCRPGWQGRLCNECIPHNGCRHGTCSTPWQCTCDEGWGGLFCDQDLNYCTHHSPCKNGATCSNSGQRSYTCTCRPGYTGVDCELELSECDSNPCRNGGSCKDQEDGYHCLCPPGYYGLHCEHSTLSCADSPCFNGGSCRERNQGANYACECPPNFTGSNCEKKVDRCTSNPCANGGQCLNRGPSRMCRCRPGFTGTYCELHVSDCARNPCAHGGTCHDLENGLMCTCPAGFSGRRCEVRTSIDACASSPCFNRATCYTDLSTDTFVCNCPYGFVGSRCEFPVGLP

B1: DVD1875 (bispecific antibody, human IgG1, kappa)
heavy: not shown
light: DIQMTQSPSSLSASVGDRVTITCQASQDISNYLNWYQQKPGKAPKLLIYDASNLETGVPSRFSGSGSGTDFTFTISSLQPEDIATYFCQHFDHLPLAFGGGTKVEIKRTVAAPQIVLIQSPAIMSASPGEKVTMTCSASSSVSYMYWYQQKPGSSPRLLIYDTSNLASGVPVRFSGSGSGTSYSLTISRMEAEDAATYYCQQWSGYPYTFGGGTKLEIKRTVAAPSVFIFPPSDEQLKSGTASVVCLLNNFYPREAKVQWKVDNALQSGNSQESVTEQDSKDSTYSLSSTLTLSKADYEKHKVYACEVTHQGLSSPVTKSFNRGEC
notes: also called DVD1875H; DVD1875L
As for B1, in assay [1], the “N-Terminal VD GEO MEAN (FACS geometric mean)” value turned out to be 717.

B2: DVD1867 (bispecific antibody, human IgG1, kappa)
heavy: not shown
light: DIQMTQSPSSLSASVGDRVTITCRASQDVSTAVAWYQQKPGKAPKLLIYSASFLYSGVPSRFSGSGSGTDFTLTISSLQPEDFATTYYCQQSYTGTVTFGQGTKVEIKRTVAAPQIVLIQSPAIMSASPGEKVTMTCSASSSVSYMYWYQQKPGSSPRLLIYDTSNLASGVPVRFSGSGSGTSYSLTISRMEAEDAATYYCQQWSGYPYTFGGGTKLEIKRTVAAPSVFIFPPSDEQLKSGTASVVCLLNNFYPREAKVQWKVDNALQSGNSQESVTEQDSKDSTYSLSSTLTLSKADYEKHKVYACEVTHQGLSSPVTKSFNRGEC
notes: Outer domain anti-DLL4 (AB015), inner domain anti-IL-6 (AB040); also called DVD1867H; DVD1867L
Consider B2, for which, in assay [2], the Kd was found to be 0.49 nM, the koff turned out to be 0.00022 s⁻¹ and the kon stood at 460000 M⁻¹ s⁻¹.

B3: DVD1857 (bispecific antibody, human IgG1, kappa)
heavy: not shown
light: DIQMTQSPSSLSASVGDRVTITCQASQDITNYLNWYQQKPGKAPKLLIYDASNLETGVPSRFSGSGSGTDFTFTISSLQPEDIATYNCQQCENFPITFGQGTRLEIKRTVAAPQIVLIQSPAIMSASPGEKVTMTCSASSSVSYMYWYQQKPGSSPRLLIYDTSNLASGVPVRFSGSGSGTSYSLTISRMEAEDAATYYCQQWSGYPYTFGGGTKLEIKRTVAAPSVFIFPPSDEQLKSGTASVVCLLNNFYPREAKVQWKVDNALQSGNSQESVTEQDSKDSTYSLSSTLTLSKADYEKHKVYACEVTHQGLSSPVTKSFNRGEC
notes: also called DVD1857H; DVD1857L
B3: in assay [3], binding was characterised by a dissociation constant (Kd) of 0.12 nM, the off-rate constant (koff) is 0.00015 s⁻¹ and the kon was 1.2e+06 M⁻¹ s⁻¹.

B4: DVD1899 (bispecific antibody, human IgG1, kappa)
heavy: not shown
light: QSALTQPASVSGSPGQSITISCTGTSSDVGSYNVVSWYQQHPGKAPKLIIYEVSQRPSGVSNRFSGSKSGNTASLTISGLQTEDEADYYCCSYAGSSIFVIFGGGTKVTVLGQPKAAPQIVLIQSPAIMSASPGEKVTMTCSASSSVSYMYWYQQKPGSSPRLLIYDTSNLASGVPVRFSGSGSGTSYSLTISRMEAEDAATYYCQQWSGYPYTFGGGTKLEIKRTVAAPSVFIFPPSDEQLKSGTASVVCLLNNFYPREAKVQWKVDNALQSGNSQESVTEQDSKDSTYSLSSTLTLSKADYEKHKVYACEVTHQGLSSPVTKSFNRGEC
notes: also called DVD1899H; DVD1899L
As to B4, in assay [3], the Kd was 6.7 nM, the koff is 0.00026 s⁻¹ and the kon stood at 38000 M⁻¹ s⁻¹.

B5: DVD1865 (bispecific antibody, human IgG1, kappa)
heavy: not shown
light: DIQMTQSPSSLSASVGDRVTITCSASQDISNYLNWYQQKPGKAPKVLIYFTSSLHSGVPSRFSGSGSGTDFTLTISSLQPEDFATYYCQQYSTVPWTFGQGTKVEIKRTVAAPQIVLIQSPAIMSASPGEKVTMTCSASSSVSYMYWYQQKPGSSPRLLIYDTSNLASGVPVRFSGSGSGTSYSLTISRMEAEDAATYYCQQWSGYPYTFGGGTKLEIKRTVAAPSVFIFPPSDEQLKSGTASVVCLLNNFYPREAKVQWKVDNALQSGNSQESVTEQDSKDSTYSLSSTLTLSKADYEKHKVYACEVTHQGLSSPVTKSFNRGEC
notes: also called DVD1865H; DVD1865L
As for B5, in assay [4], the Kd was under 0.002 nM, the koff is under 1e-06 s⁻¹ and the association rate constant (kon) amounted to 640000 M⁻¹ s⁻¹.

B6: DVD1901 (bispecific antibody, human IgG1, kappa)
heavy: not shown
light: DIQMTQSPSSLSASVGDRVTITCRASQDVSTAVAWYQQKPGKAPKLLIYSASFLYSGVPSRFSGSGSGTDFTLTISSLQPEDFATYYCQQSYTTPPTFGQGTKVEIKRTVAAPQIVLIQSPAIMSASPGEKVTMTCSASSSVSYMYWYQQKPGSSPRLLIYDTSNLASGVPVRFSGSGSGTSYSLTISRMEAEDAATYYCQQWSGYPYTFGGGTKLEIKRTVAAPSVFIFPPSDEQLKSGTASVVCLLNNFYPREAKVQWKVDNALQSGNSQESVTEQDSKDSTYSLSSTLTLSKADYEKHKVYACEVTHQGLSSPVTKSFNRGEC
notes: also called DVD1901H; DVD1901L
For B6, in assay [4], the Kd stood at 0.16 nM, the koff was found to be 9.3e-05 s⁻¹ and the kon was 580000 M⁻¹ s⁻¹.

B7: DVD1855 (bispecific antibody, human IgG1, kappa)
heavy: not shown
light: DIEMTQSPDSLAVSLGERATINCRSSQSVLYSSSNRNYLAWYQQNPGQPPKLLIYWASTRESGVPDRFSGSGSGTDFTLTISSLQAEDVAVYYCQQYYSTPRTFGQGTKVEIKRTVAAPQIVLIQSPAIMSASPGEKVTMTCSASSSVSYMYWYQQKPGSSPRLLIYDTSNLASGVPVRFSGSGSGTSYSLTISRMEAEDAATYYCQQWSGYPYTFGGGTKLEIKRTVAAPSVFIFPPSDEQLKSGTASVVCLLNNFYPREAKVQWKVDNALQSGNSQESVTEQDSKDSTYSLSSTLTLSKADYEKHKVYACEVTHQGLSSPVTKSFNRGEC
notes: also called DVD1855H; DVD1855L
Consider B7, for which, in assay [3], the Kd was found to be 3.7 nM, the koff stood at 0.00038 s⁻¹ and the kon was 100000 M⁻¹ s⁻¹.

B8: DVD1871 (bispecific antibody, human IgG1, kappa)
heavy: not shown
light: QAVLTQPSSLSAPPGASASLTCTLRSGFNVDSYRISWYQQKPGSPPQYLLRYKSDSDKQQGSGVPSRFSGSKDASANAGILLISGLQSEDEADYYCMIWHSSAWVFGGGTKLTVLRTVAAPQIVLIQSPAIMSASPGEKVTMTCSASSSVSYMYWYQQKPGSSPRLLIYDTSNLASGVPVRFSGSGSGTSYSLTISRMEAEDAATYYCQQWSGYPYTFGGGTKLEIKRTVAAPSVFIFPPSDEQLKSGTASVVCLLNNFYPREAKVQWKVDNALQSGNSQESVTEQDSKDSTYSLSSTLTLSKADYEKHKVYACEVTHQGLSSPVTKSFNRGEC
notes: also called DVD1871H; DVD1871L
For the molecule B8, in assay [5], the Kd is over 1 nM, the koff is over 0.01 s⁻¹ and the kon was over 1e+07 M⁻¹ s⁻¹.

B9: DVD1853 (bispecific antibody, human IgG1, kappa)
heavy: not shown
light: DVVMTQSPLSLPVTPGEPASISCRSSQSLLHSNGFNYVDWYLQKPGQSPHLLIYFGSYRASGVPDRFSGSGSGTDFTLKISRVEAEDVGVYYCMQALQTPPWTFGQGTKVEIRRTVAAPQIVLIQSPAIMSASPGEKVTMTCSASSSVSYMYWYQQKPGSSPRLLIYDTSNLASGVPVRFSGSGSGTSYSLTISRMEAEDAATYYCQQWSGYPYTFGGGTKLEIKRTVAAPSVFIFPPSDEQLKSGTASVVCLLNNFYPREAKVQWKVDNALQSGNSQESVTEQDSKDSTYSLSSTLTLSKADYEKHKVYACEVTHQGLSSPVTKSFNRGEC
notes: also called DVD1853H; DVD1853L
As for B9, in assay [5], the dissociation constant (Kd) stood at 15 nM, the dissociation rate constant (koff) is 0.00085 s⁻¹ and the kon is 58000 M⁻¹ s⁻¹.

B10: DVD1869 (bispecific antibody, human IgG1, kappa)
heavy: not shown
light: DIVLTQSPDSLAVSLGERVTMNCKSSQSLLNSGMRKSFLAWYQQKPGQSPKLLIYWASTRESGVPDRFTGSGSGTDFTLTISSVQAEDVAVYYCKQSYHLFTFGSGTKLEIKRTVAAPQIVLIQSPAIMSASPGEKVTMTCSASSSVSYMYWYQQKPGSSPRLLIYDTSNLASGVPVRFSGSGSGTSYSLTISRMEAEDAATYYCQQWSGYPYTFGGGTKLEIKRTVAAPSVFIFPPSDEQLKSGTASVVCLLNNFYPREAKVQWKVDNALQSGNSQESVTEQDSKDSTYSLSSTLTLSKADYEKHKVYACEVTHQGLSSPVTKSFNRGEC
notes: Outer domain anti-PlGF (AB047), inner domain anti-IL-6 (AB040); also called DVD1869H; DVD1869L
As to B10, in assay [6], the Kd turned out to be 0.02 nM, the koff amounted to 0.00011 s⁻¹ and the kon came out at 5.6e+06 M⁻¹ s⁻¹.
